{
  "source": "patent US12636342B2",
  "about": "“TARS derived from Akkermansia muciniphila or fragment thereof, and use thereof” (KOREA RESEARCH INSTITUTE OF BIOSCIENCE AND BIOTECHNOLOGY, priority 2020, dated 2026)",
  "key": {"[1]": {"tested_on": "mouse macrophage Raw264.7", "assay": "Phosphorylation of signal transducers in LPS-treated Raw264.7", "format": "cell-based", "settings": "Raw264.7, LPS, 0.5 to 3 hours", "protocol": "To determine which signaling pathway was involved in the anti-inflammatory effect by the immune cytokine secretion regulation of […], an inflammatory environment was created through LPS treatment on mouse macrophage Raw264.7 as mouse-derived immune cells, and then changes in phosphorylation of signal transducers involved in the regulation of immune cytokine secretion according to the presence or absence of […] treatment and the elapsed time (0.5 to 3 hours) were investigated. Raw264.7 cells were cultured in DMEM (Hyclone) containing 10% FBS and antibiotics."}, "BMDMs [2]": {"tested_on": "BMDMs", "assay": "M2 macrophage polarization in BMDMs (CD206 flow cytometry)", "format": "cell-based, mouse", "protocol": "Since M2 macrophage polarization precedes production of anti-inflammatory cytokines such as IL-10, we assessed the effects of AmTARS on macrophage polarization. BMDMs were treated with PBS (negative control), LPS (to induce M1 polarization), or IL-4/IL-13 (to induce M2 polarization [positive control]) in the absence and presence of AmTARS, and the resulting M2 macrophage population was measured by flow cytometry using an antibody specific for the M2 macrophage surface marker CD206."}, "[3]": {"tested_on": "TLR2-KO mice with DSS-induced colitis", "assay": "DSS-induced colitis in TLR2-deficient mice", "format": "in vivo, mouse", "protocol": "We assessed the role of TLR2 in AmTARS function in vivo. To verify whether the binding between AmTARS and TLR2 actually acted on the anti-inflammatory effect of AmTARS, an inflammatory bowel disease mouse model was prepared from TLR2-deficient mice by way of the same method as in Example 5 and investigated for anti-inflammatory efficacy after the administration of AmTARS. TLR2-KO mice were slightly more susceptible to DSS-induced colitis than WT mice, as reported previously (Rakoff-Nahoum et al., 2004)."}, "TLR4": {"target": "T1, TLR4 (Homo sapiens, UniProt O00206)", "T1 construct": "FLAG (C); expressed in transfected cells; host or cells: HEK 293T", "T1 sequence (O00206 24-839)": "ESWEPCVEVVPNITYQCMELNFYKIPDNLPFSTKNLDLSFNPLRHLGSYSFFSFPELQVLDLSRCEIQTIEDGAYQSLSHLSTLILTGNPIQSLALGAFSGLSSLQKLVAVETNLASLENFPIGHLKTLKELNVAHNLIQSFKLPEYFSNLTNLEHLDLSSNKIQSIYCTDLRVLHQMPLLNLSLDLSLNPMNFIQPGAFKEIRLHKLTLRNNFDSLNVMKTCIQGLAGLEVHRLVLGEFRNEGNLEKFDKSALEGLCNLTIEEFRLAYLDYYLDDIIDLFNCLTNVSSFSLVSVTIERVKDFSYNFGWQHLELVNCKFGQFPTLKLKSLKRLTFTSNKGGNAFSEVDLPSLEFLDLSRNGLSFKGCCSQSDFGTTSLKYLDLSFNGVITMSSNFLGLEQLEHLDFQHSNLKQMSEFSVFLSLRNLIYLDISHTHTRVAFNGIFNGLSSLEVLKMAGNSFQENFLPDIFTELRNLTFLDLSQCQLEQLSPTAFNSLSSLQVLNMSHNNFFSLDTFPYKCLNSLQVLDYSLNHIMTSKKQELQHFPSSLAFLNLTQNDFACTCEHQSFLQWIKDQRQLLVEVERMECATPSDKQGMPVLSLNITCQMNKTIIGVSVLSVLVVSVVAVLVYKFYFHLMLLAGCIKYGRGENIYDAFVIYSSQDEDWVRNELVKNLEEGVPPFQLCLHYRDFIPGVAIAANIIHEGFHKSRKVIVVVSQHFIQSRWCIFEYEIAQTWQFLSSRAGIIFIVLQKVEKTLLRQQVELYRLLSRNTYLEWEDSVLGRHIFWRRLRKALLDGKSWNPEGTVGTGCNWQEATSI", "assay": "Pull-down assay with TLR4 in HEK 293T cells", "format": "binding", "settings": "Strep-AmTARS and TLR4-FLAG", "text": "(A) AmTARS-interacting candidates identified from membrane protein interactome analysis. Potential interactors (receptors) involved in innate immunity are indicated in red. (B-D) Pull-down of Strep-AmTARS co-expressed with NLRX1-FLAG (B), CD163-FLAG (C), and TLR4-FLAG (D) in HEK 293T cells. Data shown are representative of three independent experiments, each with similar results.\nThen, Strep-tagged AmTARS, AmTARS having deletions of two functional site (AmTARSΔ1Δ2), and FLAG-tagged TLR2 were transduced into human-derived HEK 293T cells through PEI, and thereafter, the cells were lysed using a lysis buffer containing 50 mM Tris-HCl (pH 7.5), 100 mM NaCl, 1% NP-40, 1 mM EDTA, 0.25% Na-deoxycholate, and a protease inhibitor cocktail. The cell lysates each were incubated with Strep Tactin beads and washed with a buffer containing 137 mM NaCl, 2.7 mM KCl, 10 mM Na2HPO4, 1.8 mM KH2PO4, and 1 mM EDTA, and proteins attached to the beads were eluted and analyzed by immunoblotting."}, "BMDMs [4]": {"tested_on": "BMDMs", "assay": "Immunoblotting of AmTARS/TLR2-induced signaling molecules in BMDMs", "format": "cell-based, mouse", "protocol": "(A and B) Analysis of key molecules that inhibit the MAPK and PI3K/AKT signaling pathways. IL-10 produced by BMDMs pre-treated with inhibitors of ERK (PD98059, […]), p38 (SB203580, […]), MSK1/2 (SB747651A, 10 μM), CREB (666-15, 1 μM), PI3K (Wortmannin, 10 μM), and AKT1/2 (AKT1/2, 10 μM) for 1 h before treatment with either PBS or AmTARS for 24 h (n=6 per group) (A). Flow cytometry analysis of M2 macrophages in BMDMs pre-treated for 1 h with the indicated kinase inhibitors, before treatment with either PBS or AmTARS for 24 h (n=3 per group) (B). (C and D) Western blot analysis of MAPK signaling molecules in lysates of BMDMs (C) or THP1 cells (D) treated for different times with 0.5 μM AmTARS. (E) Western blot analysis of lysates of BMDMs pre-treated with α-IgG (Isotype, 1 μg ml-1) or α-TLR2 (1 μg ml-1) for 1 h before treatment with PBS, AmTARS (0.5 μM), or Pam3 (0.5 μM) for 30 min. (F and G) Western blot analysis of PI3K/AKT signaling molecules in lysates of BMDMs (F) or THP1 cells (G) treated with 0.5 μM AmTARS. (H) AmTARS activates both TLR2/1- and TLR2/6-mediated signaling. Activation of AKT, ERK, and CREB was measured by western blot analysis of lysates of THP1 cells pre-treated with α-IgG, α-TLR1, α-TLR2, or α-TLR6 (1 μg ml-1) for 1 h before treatment for 30 min with PBS or AmTARS (0.5 µM). Data shown in (A and B) are representative of three independent experiments, each with similar results (mean±SEM). P-values were calculated using an unpaired two-tailed Student's t-test. Data shown in (C-H) are representative and repeated at least three times.\nSubsequently, we conducted immunoblotting assays to measure the time-dependent activation of AmTARS/TLR2-induced signaling molecules in both BMDMs and THP1 cells. AmTARS rapidly activated ERK, p38, and MSK1/2 within 15 min and, subsequently, phosphorylation of CREB at Ser133 (which is essential for IL-10 production) within 30 min in BMDMs (FIG. 31C) and THP1 cells (FIG. 31D). We then compared AmTARS-triggered TLR2 signaling with typical ligand-triggered signaling using Pam3CSK4 (the synthetic canonical TLR2/1 agonist, referred to hereafter as Pam3) in BMDMs stimulated for 30 min. […] By contrast, activation of NF-κB was greater in Pam3-treated BMDMs than in AmTARS-treated BMDMs (FIG. 31E)."}, "[5]": {"tested_on": "inflammatory bowel disease mouse model", "assay": "DSS-induced inflammatory bowel disease mouse model, intramuscular injection", "format": "in vivo", "text": "Further, AmTARS was intramuscularly injected into the mouse model to confirm the anti-inflammatory efficacy thereof."}, "[6]": {"settings": "intramuscularly injected at 0.4 mg/kg or more"}},
  "data": [
    {"molecule": "Akkermansia muciniphila-derived threonyl-tRNA synthetase (TARS) (protein, Akkermansia muciniphila TARS) MSEHKERKTLEERQQMSDLERLRHSCAHVLATAICRLWPDAQLAGGPAVDNGFYYDVELDHRISTEDFERIEEEMKKVVKENQVFQKEVISRADAMKMAESGELGALGPRSEPSRFKIDLLNDIPEDEEISLYRNGDFTDLCAGPHVGRTGNCKAFKIMSVASAFYKGDKNRPMLQRIYGTCFPNRTQLDEHLERLEEARRRDHRKLGRELGLFCIDESVGQGLILWKPKGALIRRSLQDFITEELDKLGYSQVYTPNIGKLDLYRTSGHFPYYQESQYAPIPERDAMEKLSQEGASCAELFNGLATGTIEGYMLKPMNCPHHIKIYANDAHSYRDLPVRLAEFGTVYRWEQSGELGGMTRVRGFTQDDAHIFCTPDQLAGEIRQCLGIVKTIFGTLGMTDYRVRLSMRDPESDKYVGSPENWDKAEQALREAAEWLGADYSEEAGEAAFYGPKIDFIVRDAIGREWQLGTVQVDYNLPERFDLHYTGADNKPHRPVMVHRAPFGSMERFTGLLIEHFEGKFPTWLSPEQVRVLPISDKVTDVAAAHRTALAARGVRVTVDETPDKIGAKIRNARLDRVPYMLVLGQREAEDGTVSVRHRDKGDLGAMPFEQFADLVAREIAERHISPVI", "values": [
      {"measurement": "extracellular signal-regulated kinase (ERK)", "setting": "[1]", "result": "not affected"},
      {"measurement": "phosphorylation of NF-kB", "setting": "[1]", "result": "distinctive differences in phosphorylation from a control from 2 h"},
      {"measurement": "phosphorylation of c-Jun N-terminal kinase (JNK)", "setting": "[1]", "result": "affected through the regulation of phosphorylation from 30 min"},
      {"measurement": "phosphorylation of p38", "setting": "[1]", "result": "distinctive differences in phosphorylation from a control from 2 h"},
      {"measurement": "M2 polarization (CD206+)", "setting": "BMDMs [2]; LPS-treated BMDMs (M1 polarization)", "result": "significantly re-polarized LPS-induced M1 macrophages to M2 macrophages"},
      {"measurement": "M2 polarization (CD206+)", "setting": "BMDMs [2]; PBS-treated BMDMs", "result": "activated M2 polarization"},
      {"measurement": "colitis-induced body weight loss", "setting": "[3]; TLR2-KO mice", "result": "did not improve"},
      {"measurement": "disease activity score", "setting": "[3]; TLR2-KO mice", "result": "did not improve"},
      {"measurement": "B cells in the colon", "setting": "[3]; TLR2-deficient mice", "result": "did not show efficacy of increasing B cells in the colon"},
      {"measurement": "amount of IgA", "setting": "[3]; TLR2-deficient mice", "result": "a significant change in the amount of IgA could not be observed"},
      {"measurement": "increase in IL-10-secreting macrophage numbers", "setting": "[3]; colitis TLR2-KO mice", "result": "did not induce"},
      {"measurement": "reduction in pro-inflammatory monocyte numbers", "setting": "[3]; colitis TLR2-KO mice", "result": "did not induce"},
      {"measurement": "interaction with TLR4 (pull-down)", "setting": "TLR4", "result": "no interaction"},
      {"measurement": "activation of CREB, AmTARS versus Pam3", "setting": "BMDMs [4]; BMDMs stimulated for 30 min, 0.5 μM", "result": "significantly greater"},
      {"measurement": "time to activation of AKT", "setting": "BMDMs [4]; BMDMs, 0.5 μM AmTARS", "result": "≤ 15", "unit": "min"},
      {"measurement": "time to activation of ERK", "setting": "BMDMs [4]; BMDMs, 0.5 μM AmTARS", "result": "≤ 15", "unit": "min"},
      {"measurement": "time to activation of MSK1/2", "setting": "BMDMs [4]; BMDMs, 0.5 μM AmTARS", "result": "≤ 15", "unit": "min"},
      {"measurement": "time to activation of PI3K", "setting": "BMDMs [4]; BMDMs, 0.5 μM AmTARS", "result": "≤ 15", "unit": "min"},
      {"measurement": "time to activation of p38", "setting": "BMDMs [4]; BMDMs, 0.5 μM AmTARS", "result": "≤ 15", "unit": "min"},
      {"measurement": "time to inhibition of GSK3β activity (phosphorylation at Ser9)", "setting": "BMDMs [4]; BMDMs, 0.5 μM AmTARS", "result": "≤ 15", "unit": "min"},
      {"measurement": "time to phosphorylation of CREB at Ser133", "setting": "BMDMs [4]; BMDMs, 0.5 μM AmTARS", "result": "≤ 30", "unit": "min"},
      {"measurement": "damage to intestinal epithelial cells", "setting": "[5]; intramuscular injection", "result": "alleviate the damage to intestinal epithelial cells"},
      {"measurement": "intestinal length of the mouse model", "setting": "[5]; [6]", "result": "efficacy of decreasing the weight and intestinal length"},
      {"measurement": "weight of the mouse model", "setting": "[5]; [6]", "result": "efficacy of decreasing the weight and intestinal length"}
    ]}
  ]
}
